US20250195685A1 (CAPSTAN THERAPEUTICS, published 2025)

Experiments:
[1] = molecular target: T1, human CD8αβ heterodimer, recombinant protein (human, UniProt P01732 22-182; P10966 22-170, limits assumed); test: BLI kinetics, Fab, 37 °C
Experimental: (§1) Biolayer interferometry kinetic assays were performed using a GatorBio Gator Plus BLI system. Kinetic buffer containing PBS plus 0.1% Tween 20 and 0.2% BSA was used for calculating the baseline. To measure the binding kinetics of anti-CD8α antibody fragment (Fab), streptavidin-immobilized SA-XT sensors (#160029, Gator Bio) were prehydrated in the kinetic buffer and loaded with […] biotinylated CD8α recombinant protein (CDA-H82E3, Acro Biosystems) at a spin speed of 400 rpm to a threshold response of 10 nm. The sensors were then incubated in the kinetic buffer for 300 s to acquire a baseline measurement prior to each association. […] The antigen-loaded sensors were incubated in the diluted solutions to capture Fab fragments for 300 s to record the association phase. Sensors were finally incubated in the kinetic buffer for 900 s to record the dissociation phase. The spin speed for all steps except the antigen loading step was 1000 rpm. The temperature of the performed assays was either 30° C. or 37° C. during the association and dissociation phases. Sensor data were baseline subtracted, and global curve fitting of the kinetic data from six different analyte concentrations at a 1:1 monovalent binding model was performed using GatorOne software (version v2.10) to determine kinetic rate constants (kₒₙ and koff) and equilibrium dissociation constants (KD) of the analyzed antibodies.
(§2) The binding kinetics of CBD1033 Fab and its parental CBD1017ch Fab against human CD8αα homodimer, human CD8αβ heterodimer, and cynomolgus macaque CD8ααhomodimer were assessed following the same method in BLI evaluation of humanized Fab variants. For evaluating the binding kinetics against cynomolgus macaque CD8αβ heterodimer protein, the antigen protein was directly coupled onto amine-reactive biosensor tips (Gator Bio) following the manufacturer protocol. Briefly, the sensors were activated for 300 s with a mixture of 1-ethyl-3-(3-dimethylaminopropyl)carbodiimide hydrochloride (EDC) (ThermoFisher Scientific) and 10 mM N-Hydroxysulfosuccinimide sodium salt (sulfo-NHS) (Sigma-Aldrich) in water.

[2] = molecular target: T2, human CD8αα homodimer, recombinant protein (Acro Biosystems) (human, UniProt P01732 22-182); test: BLI kinetics, Fab, 37 °C
T2 construct: also called CD8αα antigen; biotinylated CD8α recombinant protein (CDA-H82E3)
T2 sequence (P01732 22-182 limits assumed): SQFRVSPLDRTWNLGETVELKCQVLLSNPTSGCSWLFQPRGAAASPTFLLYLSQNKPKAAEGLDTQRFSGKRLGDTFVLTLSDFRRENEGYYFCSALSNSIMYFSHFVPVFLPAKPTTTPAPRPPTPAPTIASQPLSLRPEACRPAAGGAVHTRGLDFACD
Experimental: as §1, §2

[3] = molecular target: T3, cynomolgus macaque CD8αα homodimer, recombinant protein (cynomolgus macaque); test: BLI kinetic sensorgram, 1:1 global fit (legend: 30 °C; FIG. 2I prints 37 °C for the same constants)
T3 construct: also called cynomolgus CD8αα homodimer
Experimental: as §1, §2

[4] = molecular target: T2, human CD8αα homodimer, recombinant …; test: BLI kinetic rate analysis, Fab fragment (temperature not given)
Experimental: as §1

[5] = molecular target: T3, cynomolgus macaque CD8αα homodimer, …; test: BLI kinetic assay (told in the description; antigen not given)
Experimental: as §1, §2

[6] = molecular target: T4, cynomolgus macaque CD8αβ heterodimer, recombinant protein (cynomolgus macaque); test: as above
T4 construct: In BLI coupled directly to amine-reactive sensor tips; also called cynomolgus CD8αβ heterodimer
Experimental: as §1, §2

[7] = molecular target: T1, human CD8αβ heterodimer, recombinant …; test: as above
Experimental: as §1, §2

[8] = molecular target: T2, human CD8αα homodimer, recombinant …; test: as above
Experimental: as §1, §2

[9] = molecular target: T2, human CD8αα homodimer, recombinant …; test: BLI kinetics, F(ab) on biotinylated CD8α (SA-XT sensor), 1:1 fit, 37 °C [CONT'ED]
Experimental: as §1

[10] = molecular target: T2, human CD8αα homodimer, recombinant …; test: BLI kinetic sensorgram, 1:1 global fit, 30 °C
Experimental: (§3) The global fitting was performed with a 1:1 fitting model using GatorOne software as described below.
as §1

[11] = molecular target: T4, cynomolgus macaque CD8αβ heterodimer, …; test: BLI kinetics, Fab, antigen amine-coupled to the sensor, 30 °C
Experimental: The binding kinetics of CBD1033 Fab and its parental CBD1017ch Fab against human CD8αα homodimer, human CD8αβ heterodimer, and cynomolgus macaque CD8ααhomodimer were assessed following the same method in BLI evaluation of humanized Fab variants. For evaluating the binding kinetics against cynomolgus macaque CD8αβ heterodimer protein, the antigen protein was directly coupled onto amine-reactive biosensor tips (Gator Bio) following the manufacturer protocol. Briefly, the sensors were activated for 300 s with a mixture of 1-ethyl-3-(3-dimethylaminopropyl)carbodiimide hydrochloride (EDC) (ThermoFisher Scientific) and 10 mM N-Hydroxysulfosuccinimide sodium salt (sulfo-NHS) (Sigma-Aldrich) in water. The cynomolgus macaque CD8αβ protein diluted to […] in 10 mM sodium acetate buffer, pH 6.0, was allowed to be covalently captured for 300 s to an approximate threshold of 5 nm, and the sensors were subsequently deactivated with 1 M ethanolamine (ETA) (Sigma-Aldrich) solution, pH 8.5, for 300 s. The sensors were then rinsed in the kinetic buffer for 600 s. The rinse step was repeated for an additional 120 s for baseline calculation prior to the measurements of the binding kinetics. The antibody fragment was diluted into kinetic buffer via 3-fold dilution at concentrations ranging from 1000 nM to 1.37 nM. As above, the antigen-captured sensors were incubated in the diluted solutions to capture the Fab fragments for 1200 s to record the association phase. Sensors were subsequently incubated in the kinetic buffer for 1200 s to record the dissociation phase. The shaking speed for all steps was 1000 rpm and the temperature of the performed assays were at 30° C. The kinetic parameters were determined with 1:1 monovalent (Langmuir) binding model using the previous method.

[12] = molecular target: T2, human CD8αα homodimer, recombinant …; test: BLI kinetics, F(ab) on biotinylated CD8α (SA-XT sensor), 1:1 fit, 30 °C
Experimental: as §1

[13] = molecular target: T2, human CD8αα homodimer, recombinant …; test: BLI kinetic sensorgram, 1:1 global fit, 37 °C [CONT'ED]
Experimental: as §3, §1

[14] = molecular target: T3, cynomolgus macaque CD8αα homodimer, …; test: BLI kinetics, Fab, 37 °C as printed in the table
Experimental: as §1, §2

T1 sequence (P01732 22-182 limits assumed, chain 1 of 2): as the sequence (P01732 22-182 limits assumed) above
T1 sequence (P10966 22-170 limits assumed, chain 2 of 2): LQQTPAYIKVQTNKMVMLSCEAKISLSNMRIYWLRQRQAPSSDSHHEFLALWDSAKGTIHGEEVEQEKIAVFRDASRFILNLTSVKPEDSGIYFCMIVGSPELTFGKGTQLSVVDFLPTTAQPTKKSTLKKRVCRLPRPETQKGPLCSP

B1: CBD1033 Fab (h1017-H2 / h1017-L2) (Fab, V domains shown)
VH: QVQLVQSGAEVKKPGASVKVSCKASRYTFTDYNLHWVRQAPGQGLEWMGFIYPYNGGTGYAQKFQGRVTMTVDTSTSTAYMELSSLRSEDTAVYYCARDHRYNEGVSFDYWGQGTTVTVSS
VL: DIQLTQSPSSLSASVGDRATITCRASESVDGFGNSFMNWYQQKPGKAPKLLIYLASNLESGVPSRFSGSGSGTDFTLTISSVQPEDFATYYCQQNNEDPYTFGQGTKLEIK
notes: Expressed as F(ab) fragment; also called CBD1033 Fab molecule
Kd [1]: 26.2 nM
koff [1]: 0.000653 s⁻¹
kon [1]: 25000 M⁻¹ s⁻¹
Kd [2]: 5.5 nM
koff [2]: 0.000194 s⁻¹
kon [2]: 35400 M⁻¹ s⁻¹
Kd [3]: 10.4 nM
koff [3]: 0.000264 s⁻¹
kon [3]: 25400 M⁻¹ s⁻¹
Kd [4]: 5.5 nM
koff [4]: 0.000195 s⁻¹
kon [4]: 35400 M⁻¹ s⁻¹
fold weaker binding affinity than CBD1017ch F(ab) [5]: 5 fold
fold weaker binding affinity than CBD1017ch F(ab) [6]: 5 fold
fold weaker binding affinity than CBD1017ch F(ab) [7]: 5 fold
fold weaker binding affinity than CBD1017ch F(ab) [8]: 5 fold
Kd [9]: 5.5 nM
koff [9]: 0.000194 s⁻¹
kon [9]: 35400 M⁻¹ s⁻¹
Kd [10]: 3.25 nM
koff [10]: 0.000145 s⁻¹
kon [10]: 44700 M⁻¹ s⁻¹
Kd [11]: 119 nM
koff [11]: 0.00199 s⁻¹
kon [11]: 16700 M⁻¹ s⁻¹
Kd [12]: 3.25 nM
koff [12]: 0.000145 s⁻¹
kon [12]: 44700 M⁻¹ s⁻¹
Kd [13]: 5.5 nM
koff [13]: 0.000194 s⁻¹
kon [13]: 35400 M⁻¹ s⁻¹
Kd [14]: 10.4 nM
koff [14]: 0.000264 s⁻¹
kon [14]: 25400 M⁻¹ s⁻¹
